In article PMC4490372, “Architecture of TFIIIC and its role in RNA polymerase III pre-initiation complex assembly” (Nature Communications, 2015):

B1: τ131 (123–566), TPR array, wild type [S. cerevisiae] / τ138 (641–693), τ131-Interaction Region (τIR) [S. cerevisiae] (parent complex)
chain 1: VLDPEVAQLLSQANEAFVRNDLQVAERLFNEVIKKDARNFAAYETLGDIYQLQGRLNDCCNSWFLAAHLNASDWEFWKIVAILSADLDHVRQAIYCFSRVISLNPMEWESIYRRSMLYKKTGQLARALDGFQRLYMYNPYDANILRELAILYVDYDRIEDSIELYMKVFNANVERREAILAALENALDSSDEESAAEGEDADEKEPLEQDEDRQMFPDINWKKIDAKYKCIPFDWSSLNILAELFLKLAVSEVDGIKTIKKCARWIQRRESQTFWDHVPDDSEFDNRRFKNSTFDSLLAAEKEKSYNIPIDIRVRLGLLRLNTDNLVEALNHFQCLYDETFSDVADLYFEAATALTRAEKYKEAIDFFTPLLSLEEWRTTDVFKPLARCYKEIESYETAKEFYELAIKSEPDDLDIRVSLAEVYYRLNDPETFKHMLVDVVEMR
chain 2: SKKATFTDVIHDTEIYFFDQTEKNRFHRGKKSVERIRKFQNRQKNAKIKASDD
B2: τ131 (123–566), TPR array, wild type [S. cerevisiae] / τ138 (546–693), eWH-τIR [S. cerevisiae] (parent complex)
chain 1: B1 chain 1
chain 2: SARSLRSLQRQRAILKVMNTIGGVAYLREQFYESVSKYMGSTTTLDKKTVRGDVDLMVESEKLGARTEPVSGRKIIFLPTVGEDAIQRYILKEKDSKKATFTDVIHDTEIYFFDQTEKNRFHRGKKSVERIRKFQNRQKNAKIKASDD

Variants of: B1
Test: ITC; parent: 80 nM

Row | Kd [nM] | Variant
1 | 89 | chain 1 E375K
2 | 833 | chain 1 E350K
3 | 833 | chain 1 E376K

Variants of: B2
Test: ITC; parent: 100 nM

Row | Kd [nM] | Variant
4 | 415 | chain 1 E350K
5 | 971 | chain 1 E376K
